In PMC5105194:
One block for each substance: values may come before it.

Assays:
TBC1d5^TBC/CSC complex = TBC1d5^TBC/CSC complex (UniProt Q96QK1); test: fluorescence polarisation; fluorescence anisotropy, competition: unlabelled Rab7-GMPPNP titrated into 8 μM TBC1d5/CSC and 50 nM labelled Rab7-GMPPNP; 20 °C; competitive binding one-site model
[1] = target: AlexaFluor488-labelled Rab7-GMPPNP (aa 1–186-Cys and Cys143Ser) (UniProt P51149); test: fluorescence polarisation; fluorescence anisotropy, direct binding: proteins titrated into 50 nM AlexaFluor488-labelled Rab7-GMPPNP; 20 °C; 20 mM Tris pH 8.0, 100 mM NaCl, 2 mM MgCl2, 5 mM βME; single-site 1:1 model
[2] = target: retromer cargo selective complex VPS26/VPS29/VPS35 (UniProt Q96QK1); test: ITC; TBC proteins (100∼200 μM) injected into retromer proteins (8–16 μM); 20 °C; 20 mM Tris pH 8, 200 mM NaCl, 5 mM βME; one set of sites model

TBC1d5^TBC, sequence (Q92609 whole entry, the tested form may be a part): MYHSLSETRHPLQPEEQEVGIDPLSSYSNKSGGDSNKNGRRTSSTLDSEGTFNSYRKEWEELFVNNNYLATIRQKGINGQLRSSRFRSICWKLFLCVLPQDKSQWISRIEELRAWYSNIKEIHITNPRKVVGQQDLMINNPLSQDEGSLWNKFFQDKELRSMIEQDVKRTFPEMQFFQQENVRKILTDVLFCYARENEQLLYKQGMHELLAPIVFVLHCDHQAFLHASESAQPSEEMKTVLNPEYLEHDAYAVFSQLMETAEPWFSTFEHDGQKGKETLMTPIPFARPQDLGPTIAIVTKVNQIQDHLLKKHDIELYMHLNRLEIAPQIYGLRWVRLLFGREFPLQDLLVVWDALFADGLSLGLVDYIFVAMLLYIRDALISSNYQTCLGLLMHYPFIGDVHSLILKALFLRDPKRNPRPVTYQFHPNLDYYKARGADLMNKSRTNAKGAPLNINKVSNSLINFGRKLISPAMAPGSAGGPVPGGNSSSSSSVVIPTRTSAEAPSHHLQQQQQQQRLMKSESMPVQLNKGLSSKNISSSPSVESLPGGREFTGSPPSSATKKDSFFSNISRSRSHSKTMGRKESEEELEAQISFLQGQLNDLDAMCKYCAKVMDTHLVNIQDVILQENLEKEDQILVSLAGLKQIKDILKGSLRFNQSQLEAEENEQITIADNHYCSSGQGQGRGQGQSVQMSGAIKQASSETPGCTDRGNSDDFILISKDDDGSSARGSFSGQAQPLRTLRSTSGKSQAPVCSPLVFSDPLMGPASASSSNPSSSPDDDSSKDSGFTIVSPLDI
AlexaFluor488-labelled Rab7-GMPPNP (aa 1–186-Cys and Cys143Ser), sequence (P51149 other isoform, or with tags, fused parts or gaps C143S): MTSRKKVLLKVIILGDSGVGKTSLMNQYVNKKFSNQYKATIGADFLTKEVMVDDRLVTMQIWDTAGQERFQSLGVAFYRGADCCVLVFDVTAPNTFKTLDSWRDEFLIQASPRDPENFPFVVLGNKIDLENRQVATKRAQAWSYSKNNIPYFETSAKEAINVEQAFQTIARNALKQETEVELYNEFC

Kd (TBC1d5^TBC/CSC complex): 36 µM
Substance: unlabelled Rab7-GMPPNP (from UniProt P51149 1-86) (natural protein)

Kd [1]: 11.5 µM
Substance: TBC1d5^TBC/CSC complex (from UniProt Q96QK1 1-796; Q9UBQ0 1-182; O75436 1-327)

Kd [2]: 0.22 µM | stoichiometry N [2]: 1
Substance: TBC1d5^TBC (from UniProt Q92609 1-795) (domain or fragment)
